# Biological target: hybrid aspen (poplar) cellulose synthase isoform-8 (CesA8) (hybrid aspen (poplar))
# Assay: cryo-EM structure
substance,measurement,value
hybrid aspen (poplar) cellulose synthase isoform-8 (CesA8) (enzyme),stoichiometry N,3

# Source: publication PMC9934533
